We go through 21 sequences from a protein production outcome set (Wang et al. 2014).

This series can be described thus: label from the status in PepcDB records.
With “MLLSPNLLAEGQSRYISDNVFLYLLNGPGTDYRILGSIEAGQPITLQGETQGDYSKIVDHKGREGWVQTNLISSTPSFREQVSTLTNELNEAKAKLAEVLNSTGNQTDEVAELKAQLAEAQTMLAKANQERENLKMAVDHSAQETQFALWREGGIIAAAGLVVGVILVYLPRPQRRNKKRWMLEHHHHHH”, the protein production entry was “failed”.

For “MLLSYLIYGLRNGFMVTLGGIAGFVVGAIAAFMAVPLVSGWVTDSGWRLTATVGAAVVLIALGHGLGTMIGRKVRHTVRIKPLHAVDRLIGGVVSVVVAALVMSMLAFSISSLGVPFVSQQLAESRVIRYIDDLTPTPVKSTMAQLRSTVIGDGIPKLIEGIGPVTPVPVPNESTDTPALNQAAESVLKIAGTAFECGQNQTGSGFVVSPGRVVTNAHVVAGVSQPVVEVPDGGALPGRVVYFDSQRDIAVLAVDGLQSSPLPLSADLPAGSSAAFAGYPHGGPFQSKPATVQGISTILVPDIYGNNPSPEQVYKLAGDVQPGNSGGPLLTMQGQVAGLIFAKTTTDAALGFALTMADLEPVAAQAPGLSNPVSAGQCTRK”, the protein production result was “failed”.

As to “MLLSYVYKLNPSLKQAETMERWLHLLRLQYNFRVRERTEAYEQAKAPVMGNYCILQTQAECCPLTCSVSKGALYGNPWSTKGKKRSPLAQQDANLVDLKKERPWYGEICYHVLQQMLKQVDTAFVRFFKGLGKYPKTKRRGKLRSFTYPTGDVGFKGNKVRLPGLGWMRFFQSRPFPLGFKIRSTTVRKKANGFYISVLLQDDTVPQASASQQIQTALGVDLGIKKLISLSTGETIANPRFYKQMERKRSRLNWAANRKVLGSRRRQKAYQQIAQLEQKVTNQREDYQWKIAHNLVKRFDLIVFENLNVQGMMARCKPKQDESGKYLRNGQSAKSGLNKAIADAAWGSLKLKVKILSERAGVLVHEVKPNFSSQECSECGYISPTNRDKEKFLCEHCGHHADADIDAAKVILKRGLSELGINLDAVSGVPRKQDKSTSKEPVARQGISTALAVEPGNPHQVEERLSN”, the protein production result was “failed”.

For “MLLTIFSILAILCLVLYFYCMVILHLKNKGVYHPMTHAVSDYGIGQNKSYFQLAGLANTFRNLFLILSLIFWKYSFSFKKEAVLLLILAIIGYAGVALFPTDIEGSKRTVKGIIHLLFAILQFTALAIFIFNVTEVLKPLNATLFLIASYIKIVVEVGLYGLVIALFLPFVKKYFGLFERLFLYSSNLYILLLCVMMIRY”, the protein production entry is recorded as “failed”.

As for “MLLVMGAHESGLDRARLQSLYEQLVATNEDETEKLAASGHSTGLVASEWARFLAPFDFGYRLVALQRESKRVAAALTRALYGIDTSGASEHDPLWAVEHRVLPVPVTDRLLFCEMRFLLVLALSRRLWMRLERVDPLGQENPFPRDAEIIERVEDLARQSRERLALLAERSPEALNAGKQEAHDCIEDLRTKETRAAEQVAGFAQALGDAALLEKVWHALVDEIAQNRQLNHALLQTLCQWVLMLIGADTEVPSSASCSDE”, the protein production entry was “not failed”.

For “MLLYMRFTENFERAKKEALMSLEIALRKGEVDEDIIPLLKKINSIENYFTTSSCSGRISVMEMPHFGDKVNAKWLGKWHREVSLYEVLEAIKKHRSGQLWFLVRSPILHVGAKTLEDAVKLVNLAVSCGFKYSNIKSISNKKLIVEIRSTERMDVLLGENGEIFVGEEYLNKIVEIANDQMRRFKEKLKRLESKINALNR”, the protein production entry was “not failed”.

For the sequence “MLMLEREKLARLIKKRSLKVADEPVFKLSSGKLSRYYVDLKQITFDPEGDYLIGKAMYELVKEFNPDACGGLTLGADPIAYAIAFVSLMDSNPIKPFVVRKEPKGHGMKRQIEGLLNPGERVAVLEDVVTTGSSALKAVKACREYGLEVIGVFAVVDREEGGRENIEKEGIPLYSLFKLSELL”, the protein production entry is recorded as “not failed”.

In the case of “MLNDQEVLSMSSVSLSPLFRRSIGFDRLNDLFDYAMQSETPNYPPYNIEKDGENNYRILIASAGFDQDELRIHLENQVLTISGQPDSEQVDKNIEYLHKGIARRAFKLSLRLDEHIEVQQADYENGLLKIELQRIIPEEKMPRQIPIGQSKSIKNIESSKIVNS”, the protein production entry is reported as “failed”.

Take “MLNEIVVFFSILVSSWNIYNSALSFYGLTWRVNQKIEYSDKTFSILVPAKNEEKVLGRLLDRLINQEYDKSKYEIIVVEDGSTDRTFQICKNYEENYDNVRCVKLDKSNVPNGKSRALNYAMKLAKFDIIGVFDADTFPRLDVLSYVSGSFDSDNVVAVQGKLIPINVRESIIARFASLEELFNEYSIGGRARFGLFVPLEGTCTFVKKSIIEEMGGWNEYSLTEDLDLSVKLTSAGYKIMYNPNVVAWREVASSLRWLIKQRLRWYRGHFEISLSMPKKIDPRIFDGILLIGTPIFMLMNLVNYSLVLIYQTPLFVVTMVIVSTATLLSFITAVGISRKHLIEYQYSILSLIYMNFVMLLNVTAVFLEIVRVPRVWIKTERSGKISVPEV”: the protein production entry is recorded as “failed”.

Turning to “MLNHPTHERLIELGLTGMAKAFEEQRRSPDLEALPFEDRIGLLVDREAAERDTRRLTTRLKIAALRQTACVEDVDLRTPRGIDRAVFAKLVEGRWIDRHENLLVTGATGLGKSWLACALGHKACRDNRSVLYHRVPRLFEALALARGDGRYARLLKSLGRAQLLILDDWGLSVLTAAERRDLLEILEDRHGRASTIVTSQLPVDTWHGAIGDPTVADAILDRLVHNAHRLQLTGESMRKRSAKTITLDGQPEH”, the protein production result is on record as “failed”.

For the sequence “MLNKLMWLTGKAQEDWIEKILHLRQKIWPDYQRIKNDTLFKLYSHYPLYQWLSHYNGEVVAVINSLPVALDQSLDNLPQEGLNWVLSHLESTTPLTQSNYLAAVSVTVNPAYQRLGLSKLLLNRLKASAQEAQYKALIVPARPSQKENYPLISLEDYLKWKRVDNTIFDPWLRVHAQLGGKIAYPCQRSRVITANVAQWEQWLGHPLLQTGQYLVKGGLNPITINKEKDIGIYIEPNVWVIHDL”, the protein production entry is “failed”.

Regarding “MLNNFLNLELLNISLSYPFLFLITTAIVLLLCSGFWKFHRSFYIGISSLSLIVSAFLILNNANAQGLEAKAFLATLNNDIVSFYASLVILCFSFLYLLMQKEENQGEFYALFLFMIASLLLMVSSSNLVLIFIGLESSSLALYTLIAMRGSDNAISSAIKYFSIAAVGAGFFVMAVAFIYLKTGTLDLSANLALKNEFQKDPMLLGAGVMIFVLCAIKLSLAPFHFWLKDVYYAAHTNLVAFISVVPKVAMLVVVIRLFDFLNNTGFEYIIIVLAIFSMLIGAFAALSQNNIKKMFAYSSVVHSSLVLIACIPLLKEQNFDGILLAIFGYWTLFAFANYAVFMILSNYENNSYESLNGLLVKKPLIAFCLSISVLSLAGIPPFGVFWGKFMILNTVILNGYWYLALFVALSSVIMLYAYLKILIHVLFMKNDRVYNIKFSFIQNFILAFCVCVSIFAILLML”, the protein production entry is “failed”.

For “MLNPEQVKRFLETAKQDPLYPAFLLALGTGLRRGEILGLRWQDLDLQKGILQVRQSLIRTREGLKFEEPKTEKSRRQIPLPPSVVAALKRHKAWVNQNKLILGPDYEDHDLVFPVENGRPRDPKGFAEYFNRLLDKAGLPHIRLHDLRHTHATLLLLEGVHPKVVQERLGHSTVSITLDIYSHILPGLQEKAAERIDGLLQPKENPSPKEGTIKLEHHHHHH”, the protein production entry is “not failed”.

For the sequence “MLNRGGFTYPGQRWKHCINTLLTGGVLLIVSASAYADSNALGYKIPGYELVYDAPMETTLTTPDLRPSDAVWISLFDNAQHTIELGQFYVANQAGTRLDSVLQHLRAAGERGVRIRLLLEEKGLKISTQDTLDQLKTIPNLELRVIPFERLSGGILHAKYLLVDGKQAYMGSQNLDWRALEHIHETGLLIDDPRVVNQISTIFEQDWQAQARLSNGETVPPLPASTDAVDRSGNYLVASPKAFNPAGVMDSEEELPRLLAEAQQQVRIQVMDYVPLSYGPDKTRPFYAVIDNAIRTAAARGVQVELMVSEWSTKMPNIAYLKSLALLPNIQIKTVSIPQVSSGFIPFARVIHSKIMTIDGTKTWIGTSNWSGGYLDNSRNLEMVIQNPAMAQRVDLLYTQLWNSAYAHPLRIDYDYPQPNPGGVKEKEQENTASSTTGGTVTAP”, the protein production entry was “failed”.

Take “MLNYLIFFPLISAFVVLLLNRGGVKVFSVVVSFMILALNLDTFADFLQGVSFDYNLSFKILKFFSFHVGVDSIALVLMLLSSLMIFLSFLFLKLEQKALISCIFFLEFAIMGLFSAKDGLLFYIFWEFSLLPLLYIMGVYGKDFRAGVKFFIYAFAGSILMLVALIYQAYLNYQLLNIFTFDLEIWKNNASAANFTEQLLLFGAFFIAFAIKAPLFPLHTWAPKVYANSPILVSVMLVVFKMAPFGFLLFCLPLFPDASVYFMPLIVALCIVSIVYNALIAYRAENIKELIAYSSISHLGVMILGIFSLNALGISGAVFYMFAHGIVTGTLFLMVELLYQRYHTYDISFYHSLAKKAPLFSIFFMLILLASVSLPLTVSFVGEFLILLGIAKINLFYALLAGLVIILGAIYMFAVFRKIFFMQKQSFIEGFSLRFREIVALVCIVVMIFGLGLMPNILLKPIQKDVDNLIKTMNIRAVEQNTLDFLSKIGEANVK”: the protein production entry is “failed”.

Take “MLPIASGNDDRNLIRYVDGGRFDEIMLTGDLTGLSSFLTNAGPNARDDFDLTVLMRAAEAGNLMVVARLLDLGANPRLTNPRGVTALHIAAIAGDDGIVECLIDAGAEVDAVDDQGRTPLWNAAAHHLPDSAVVDVLLRAGANVNLRDCNGVSPEDML”: the protein production entry was “failed”.

“MLPSPSSSSAPTKRIDPSELKRVFQMFDKNGDGRITKEELNDSLENLGIYIPDKDLTQMIHKIDANGDGCVDIDEFESLYSSIVDEHHNDGETEEEDMKDAFNVFDQDGDGFITVEELKSVMASLGLKQGKTLDGCKKMIMQVDADGDGRVNYKEFLQMMKGGGFSSSN”: the protein production entry is “not failed”.

On to “MLQNRLNKARSHAEKHDVDAIVFFNMSNVRYLSGFTGSDGAVVLGRDASWFLTDSRYTTQASRQVVGLPTVEYRIKLDGITELVREQGFRRIGFESEHTAFAVYESLRQKLPKTELVPIGEELAQLRLIKDPSECELLSRVARLASEALLSILPLVKPGAVERELALELEFAMRRAGAENASFDFIVASGERGSLPHGRASDKALAAGELVTIDFGARYEGYCSDETVTVAVGVPDERQCQIYGIVKEAHDRAIAAVRPGAELREIDRIARGYIEEQGYGAFFGHGLGHGVGLDVHEKPVVSPRGEGVAAVGMVFTIEPGIYIPGWGGVRIEDTVIVTEDGCRPITMIPKELMIL”, for which the protein production result is reported as “failed”.

For the sequence “MLRFAVLGHPVAHSLSPAMHAFALESLGLEGSYEAWDTPLEALPGRLKEVRRAFRGVNLTLPLKEAALAHLDWVSPEAQRIGAVNTVLQVEGRLFGFNTDAPGFLEALKAGGIPLKGPALVLGAGGAGRAVAFALREAGLEVWVWNRTPQRALALAEEFGLRAVPLEKAREARLLVNATRVGLEDPSASPLPAELFPEEGAAVDLVYRPLWTRFLREAKAKGLKVQTGLPMLAWQGALAFRLWTGLLPDPSGMEEAARRALGV”, the protein production result is given as “not failed”.

In the case of “MLRFGFAAVLLVLAGCSAPMGPEALGPGSYQAAPDPGPFLTPADAQRAFPAVVARVEPVAEAICRERTRGVPCDFQIAVDARPGLDPNAFQTLDDYGRPVIGLTLSLISDARNVDELAFVVGHETAHHILGHIPRQRETALTGAVLAGVLAQMGGADAQTIRSVQEFGANVGARSYSKNFELEADGLGTEIAIRAGYDPVHGAQFFTRLPDPGDTFLGSHPPNAQRIAAVRRAAESIGYVSAWLEHHHHHH”, the protein production entry is “failed”.

Regarding “MLRFPGQGHHNPDDVVIGLLDLAARVDEALAVQAVAFGLGADEVAVRHQIVLRHLTSPGARAFGATTGDGRLVGFVYGMPNDRTHWWSTVVEPYLRGQGHEDWLDNSFVITELHVHPHFQNHGIGRSLITTITDGAAEPRSILSAIDTESPARGLYHSLGYEDLARQVLFPSAPRPYAVMGAPLPLRRR”, the protein production entry is given as “failed”.
